Measured values published in the Human Domainome abundance scans (Beltran et al. 2025).
± gives the uncertainty stated by the source.

B1: Ankyrin repeat and SOCS box protein 14, residues 532 to 572; numbered along this chain, A6NK59 (parent)
chain: RSLKHLCRLKIRKCMGRLHLRCPVFMSFLPLPNRLKAYVLY

Variants of: B1
Experiment: abundance fitness (aPCA) (normalised: wild type 0, dead -1); higher = more abundant; growth selection in yeast, the domain comes from the species named
Details: Homo sapiens

Question: Which abundance fitness does the source give for RSLKHLCRLKIRKCMGRLHLRCPVFMSFLPIPNRLKAYVLY [L31I] here?
Answer: The abundance fitness was -0.006 ± 0.072.

Question: For RSLKHLCRLKIRKCMGRLHLRCPVFMSFLPKPNRLKAYVLY [L31K], which abundance fitness is on record?
Answer: Its abundance fitness is -0.529 ± 0.079.

Question: Which abundance fitness does the source give for RSLKHLCRLKIRKCMGRLHLRCPVFMSFLPGPNRLKAYVLY [L31G] here?
Answer: The abundance fitness was -0.28 ± 0.052.

Question: Which abundance fitness does the source give for RSLKHLCRLKIRKCMGRLHLRCPVFMSFLPQPNRLKAYVLY [L31Q] here?
Answer: Its abundance fitness is -0.656 ± 0.11.

Question: With RSLKHLCRLKIRKCMGRLHLRCPVFMSFLPAPNRLKAYVLY [L31A] as the variant, how does the abundance fitness read?
Answer: The abundance fitness was -0.272 ± 0.054.

Question: With RSLKHLCRLKIRKCMGRLHLRCPVFMSFLPSPNRLKAYVLY [L31S] as the variant, how does the abundance fitness read?
Answer: Its abundance fitness is -0.113 ± 0.06.

Question: For RSLKHLCRLKIRKCMGRLHLRCPVFMSFLPWPNRLKAYVLY [L31W], which abundance fitness is on record?
Answer: The abundance fitness was -0.187 ± 0.049.

Question: For RSLKHLCRLKIRKCMGRLHLRCPVFMSFLPHPNRLKAYVLY [L31H], which abundance fitness is on record?
Answer: Its abundance fitness is -0.434 ± 0.23.

Question: With RSLKHLCRLKIRKCMGRLHLRCPVFMSFLPRPNRLKAYVLY [L31R] as the variant, how does the abundance fitness read?
Answer: Its abundance fitness is -0.338 ± 0.05.

Question: With RSLKHLCRLKIRKCMGRLHLRCPVFMSFLPYPNRLKAYVLY [L31Y] as the variant, how does the abundance fitness read?
Answer: Its abundance fitness is -0.795 ± 0.14.

Question: For RSLKHLCRLKIRKCMGRLHLRCPVFMSFLPVPNRLKAYVLY [L31V], which abundance fitness is on record?
Answer: The abundance fitness was -0.086 ± 0.048.

Question: With RSLKHLCRLKIRKCMGRLHLRCPVFMSFLPPPNRLKAYVLY [L31P] as the variant, how does the abundance fitness read?
Answer: The abundance fitness was -0.476 ± 0.46.

Question: For RSLKHLCRLKIRKCMGRLHLRCPVFMSFLPMPNRLKAYVLY [L31M], which abundance fitness is on record?
Answer: Its abundance fitness is -0.301 ± 0.11.

Question: For RSLKHLCRLKIRKCMGRLHLRCPVFMSFLPTPNRLKAYVLY [L31T], which abundance fitness is on record?
Answer: Its abundance fitness is -0.439 ± 0.11.

Question: Which abundance fitness does the source give for RSLKHLCRLKIRKCMGRLHLRCPVFMSFLPEPNRLKAYVLY [L31E] here?
Answer: The abundance fitness was -0.846 ± 0.11.

Question: With RSLKHLCRLKIRKCMGRLHLRCPVFMSFLPDPNRLKAYVLY [L31D] as the variant, how does the abundance fitness read?
Answer: Its abundance fitness is -0.256 ± 0.16.

Question: Which abundance fitness does the source give for RSLKHLCRLKIRKCMGRLHLRCPVFMSFLYLPNRLKAYVLY [P30Y] here?
Answer: The abundance fitness was -0.067 ± 0.087.

Question: With RSLKHLCRLKIRKCMGRLHLRCPVFMSFLTLPNRLKAYVLY [P30T] as the variant, how does the abundance fitness read?
Answer: The abundance fitness was 0.313 ± 0.06.

Question: Which abundance fitness does the source give for RSLKHLCRLKIRKCMGRLHLRCPVFMSFLVLPNRLKAYVLY [P30V] here?
Answer: The abundance fitness was -0.009 ± 0.047.

Question: For RSLKHLCRLKIRKCMGRLHLRCPVFMSFLPLPNALKAYVLY [R34A], which abundance fitness is on record?
Answer: Its abundance fitness is -0.255 ± 0.048.

Question: With RSLKHLCRLKIRKCMGRLHLRCPVFMSFLPLPNGLKAYVLY [R34G] as the variant, how does the abundance fitness read?
Answer: Its abundance fitness is -0.29 ± 0.046.

Question: For RSLKHLCRLKIRKCMGRLHLRCPVFMSFLPLPNMLKAYVLY [R34M], which abundance fitness is on record?
Answer: Its abundance fitness is -0.714 ± 0.13.

Question: For RSLKHLCRLKIRKCMGRLHLRCPVFMSFLPLPNQLKAYVLY [R34Q], which abundance fitness is on record?
Answer: Its abundance fitness is -0.44 ± 0.2.

Question: For RSLKHLCRLKIRKCMGRLHLRCPVFMSFLPLPNFLKAYVLY [R34F], which abundance fitness is on record?
Answer: The abundance fitness was -0.168 ± 0.12.

Question: With RSLKHLCRLKIRKCMGRLHLRCPVFMSFLPLPNHLKAYVLY [R34H] as the variant, how does the abundance fitness read?
Answer: Its abundance fitness is -0.455 ± 0.32.

Question: For RSLKHLCRLKIRKCMGRLHLRCPVFMSFLPLPNCLKAYVLY [R34C], which abundance fitness is on record?
Answer: The abundance fitness was -0.204 ± 0.056.

Question: For RSLKHLCRLKIRKCMGRLHLRCPVFMSFLPLPNLLKAYVLY [R34L], which abundance fitness is on record?
Answer: The abundance fitness was -0.709 ± 0.095.

Question: With RSLKHLCRLKIRKCMGRLHLRCPVFMSFLPLPNKLKAYVLY [R34K] as the variant, how does the abundance fitness read?
Answer: The abundance fitness was -0.166 ± 0.094.

Question: For RSLKHLCRLKIRKCMGRLHLRCPVFMSFLPLPNELKAYVLY [R34E], which abundance fitness is on record?
Answer: Its abundance fitness is -0.054 ± 0.1.

Question: Which abundance fitness does the source give for RSLKHLCRLKIRKCMGRLHLRCPVFMSFLPLPNPLKAYVLY [R34P] here?
Answer: Its abundance fitness is -0.582 ± 0.12.

Question: With RSLKHLCRLKIRKCMGRLHLRCPVFMSFLPLYNRLKAYVLY [P32Y] as the variant, how does the abundance fitness read?
Answer: The abundance fitness was 0.221 ± 0.14.

Question: With RSLKHLCRLKIRKCMGRLHLRCPVFMSFLPLQNRLKAYVLY [P32Q] as the variant, how does the abundance fitness read?
Answer: Its abundance fitness is -0.587 ± 0.091.

Question: With RSLKHLCRLKIRKCMGRLHLRCPVFMSFLPLMNRLKAYVLY [P32M] as the variant, how does the abundance fitness read?
Answer: Its abundance fitness is 0.212 ± 0.072.

Question: For RSLKHLCRLKIRKCMGRLHLRCPVFMSFLPLENRLKAYVLY [P32E], which abundance fitness is on record?
Answer: The abundance fitness was -1.07 ± 0.13.

Question: Which abundance fitness does the source give for RSLKHLCRLKIRKCMGRLHLRCPVFMSFLPLCNRLKAYVLY [P32C] here?
Answer: Its abundance fitness is 0.239 ± 0.062.

Question: With RSLKHLCRLKIRKCMGRLHLRCPVFMSFLPLDNRLKAYVLY [P32D] as the variant, how does the abundance fitness read?
Answer: The abundance fitness was -0.998 ± 0.29.

Question: Which abundance fitness does the source give for RSLKHLCRLKIRKCMGRLHLRCPVFMSFLPLWNRLKAYVLY [P32W] here?
Answer: The abundance fitness was 0.552 ± 0.049.

Question: With RSLKHLCRLKIRKCMGRLHLRCPVFMSFLPLHNRLKAYVLY [P32H] as the variant, how does the abundance fitness read?
Answer: Its abundance fitness is -0.47 ± 0.17.

Question: Which abundance fitness does the source give for RSLKHLCRLKIRKCMGRLHLRCPVFMSFLPLGNRLKAYVLY [P32G] here?
Answer: The abundance fitness was -0.223 ± 0.05.

Question: With RSLKHLCRLKIRKCMGRLHLRCPVFMSFLPLFNRLKAYVLY [P32F] as the variant, how does the abundance fitness read?
Answer: The abundance fitness was 0.465 ± 0.062.

Question: With RSLKHLCRLKIRKCMGRLHLRCPVFMSFLPLINRLKAYVLY [P32I] as the variant, how does the abundance fitness read?
Answer: Its abundance fitness is -0.013 ± 0.12.

Question: With RSLKHLCRLKIRKCMGRLHLRCPVFMSFLPLSNRLKAYVLY [P32S] as the variant, how does the abundance fitness read?
Answer: The abundance fitness was -0.363 ± 0.062.

Question: With RSLKHLCRLKIRKCMGRLHLRCPVFMSFLPLANRLKAYVLY [P32A] as the variant, how does the abundance fitness read?
Answer: Its abundance fitness is 0.08 ± 0.048.

Question: Which abundance fitness does the source give for RSLKHLCRLKIRKCMGRLHLRCPVFMSFLPLRNRLKAYVLY [P32R] here?
Answer: The abundance fitness was -0.452 ± 0.048.

Question: Which abundance fitness does the source give for RSLKHLCRLKIRKCMGRLHLRCPVFMSFLPLLNRLKAYVLY [P32L] here?
Answer: Its abundance fitness is 0.403 ± 0.047.

Question: With RSLKHLCRLKIRKCMGRLHLRCPVFMSFLPLKNRLKAYVLY [P32K] as the variant, how does the abundance fitness read?
Answer: The abundance fitness was -0.179 ± 0.07.

Question: Which abundance fitness does the source give for RSLKHLCRLKIRKCMGRLHLRCPVFMSFLPLPPRLKAYVLY [N33P] here?
Answer: Its abundance fitness is -0.004 ± 0.064.

Question: For RSLKHLCRLKIRKCMGRLHLRCPVFMSFLPLPLRLKAYVLY [N33L], which abundance fitness is on record?
Answer: The abundance fitness was -0.432 ± 0.073.

Question: Which abundance fitness does the source give for RSLKHLCRLKIRKCMGRLHLRCPVFMSFLPLPERLKAYVLY [N33E] here?
Answer: Its abundance fitness is 0.173 ± 0.049.

Question: Which abundance fitness does the source give for RSLKHLCRLKIRKCMGRLHLRCPVFMSFLPLPYRLKAYVLY [N33Y] here?
Answer: Its abundance fitness is -0.586 ± 0.23.

Question: For RSLKHLCRLKIRKCMGRLHLRCPVFMSFLPLPSRLKAYVLY [N33S], which abundance fitness is on record?
Answer: The abundance fitness was 0.105 ± 0.057.

Question: Which abundance fitness does the source give for RSLKHLCRLKIRKCMGRLHLRCPVFMSFLPLPMRLKAYVLY [N33M] here?
Answer: Its abundance fitness is -0.629 ± 0.21.

Question: With RSLKHLCRLKIRKCMGRLHLRCPVFMSFLPLPIRLKAYVLY [N33I] as the variant, how does the abundance fitness read?
Answer: Its abundance fitness is -0.452 ± 0.27.

Question: Which abundance fitness does the source give for RSLKHLCRLKIRKCMGRLHLRCPVFMSFLPLPDRLKAYVLY [N33D] here?
Answer: The abundance fitness was 0.057 ± 0.12.

Question: For RSLKHLCRLKIRKCMGRLHLRCPVFMSFLPLPKRLKAYVLY [N33K], which abundance fitness is on record?
Answer: The abundance fitness was -0.222 ± 0.09.

Question: Which abundance fitness does the source give for RSLKHLCRLKIRKCMGRLHLRCPVFMSFLPLPRRLKAYVLY [N33R] here?
Answer: The abundance fitness was 0.044 ± 0.046.

Question: Which abundance fitness does the source give for RSLKHLCRLKIRKCMGRLHLRCPVFMSFLPLPCRLKAYVLY [N33C] here?
Answer: Its abundance fitness is -0.151 ± 0.14.

Question: Which abundance fitness does the source give for RSLKHLCRLKIRKCMGRLHLRCPVFMSFLPLPWRLKAYVLY [N33W] here?
Answer: Its abundance fitness is -0.528 ± 0.078.

Question: Which abundance fitness does the source give for RSLKHLCRLKIRKCMGRLHLRCPVFMSFLPLPHRLKAYVLY [N33H] here?
Answer: Its abundance fitness is 0.129 ± 0.084.

Question: With RSLKHLCRLKIRKCMGRLHLRCPVFMSFLPLPQRLKAYVLY [N33Q] as the variant, how does the abundance fitness read?
Answer: Its abundance fitness is 0.111 ± 0.068.

Question: For RSLKHLCRLKIRKCMGRLHLRCPVFMSFLPLPGRLKAYVLY [N33G], which abundance fitness is on record?
Answer: Its abundance fitness is 0.216 ± 0.049.

Question: For RSLKHLCRLKIRKCMGRLHLRCPVFMSFLPLPARLKAYVLY [N33A], which abundance fitness is on record?
Answer: Its abundance fitness is 0.234 ± 0.046.
